pKd, pKi: −log10 of the molar value.
Experiments:
[1] = biological target: full-length trimeric SARS-CoV-2 Spike protein (Spike-H6) (SARS-CoV-2); assay: ELISA screen
[2] = biological target: monomeric SARS-CoV-2 receptor binding domain (RBD-H6) (SARS-CoV-2) (UniProt P0DTC2); assay: ELISA screen
[3] = biological target: human recombinant soluble ACE2 (human) (UniProt Q9BYF1); assay: ELISA screen
[4] = biological target: full-length trimeric SARS-CoV-2 Spike protein (Spike-H6) (SARS-CoV-2); assay: high-speed AFM, from volumes
[5] = biological target: full-length trimeric SARS-CoV-2 Spike protein (Spike-H6) (SARS-CoV-2); assay: inhibition of Spike binding to Vero E6 cells, AFM
[6] = biological target: full-length trimeric SARS-CoV-2 Spike protein (Spike-H6) (SARS-CoV-2); assay: AFM single molecule force spectroscopy, Evans model
[7] = biological target: full-length trimeric SARS-CoV-2 Spike protein (Spike-H6) (SARS-CoV-2); assay: SPR, Spike immobilized, bivalent analyte model, first binding step

human CLEC4G-hIgG1 Fc-fusion protein (Fc fusion), sequence (Q6UXB4 53-293, form in doubt): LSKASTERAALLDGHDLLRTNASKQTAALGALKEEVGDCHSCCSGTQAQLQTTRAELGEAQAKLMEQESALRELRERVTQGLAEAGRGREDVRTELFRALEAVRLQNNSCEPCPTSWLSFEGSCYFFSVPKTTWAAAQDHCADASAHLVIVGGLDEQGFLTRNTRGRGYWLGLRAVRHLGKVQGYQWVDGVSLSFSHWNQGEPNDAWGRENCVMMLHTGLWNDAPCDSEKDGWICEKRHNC
human recombinant soluble ACE2 (human), sequence (Q9BYF1 18-740 limits assumed): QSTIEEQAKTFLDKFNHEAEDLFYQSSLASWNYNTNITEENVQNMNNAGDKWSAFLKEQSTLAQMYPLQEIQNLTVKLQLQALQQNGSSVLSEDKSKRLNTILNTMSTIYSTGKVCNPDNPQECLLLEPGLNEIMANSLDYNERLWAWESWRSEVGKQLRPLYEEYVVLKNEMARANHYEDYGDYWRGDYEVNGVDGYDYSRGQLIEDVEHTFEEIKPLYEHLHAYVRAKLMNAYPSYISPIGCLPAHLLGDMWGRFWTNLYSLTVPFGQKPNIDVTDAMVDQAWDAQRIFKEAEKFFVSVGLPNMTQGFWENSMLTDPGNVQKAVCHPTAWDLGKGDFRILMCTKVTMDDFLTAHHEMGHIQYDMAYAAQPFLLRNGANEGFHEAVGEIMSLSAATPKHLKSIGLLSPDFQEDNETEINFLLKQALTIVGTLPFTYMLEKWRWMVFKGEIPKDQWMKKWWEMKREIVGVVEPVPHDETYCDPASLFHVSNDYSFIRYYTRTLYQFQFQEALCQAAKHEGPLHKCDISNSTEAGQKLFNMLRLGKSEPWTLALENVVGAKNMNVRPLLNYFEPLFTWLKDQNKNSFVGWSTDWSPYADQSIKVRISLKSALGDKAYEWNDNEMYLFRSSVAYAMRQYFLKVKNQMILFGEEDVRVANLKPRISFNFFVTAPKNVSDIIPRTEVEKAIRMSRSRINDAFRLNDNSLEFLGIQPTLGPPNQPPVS
Lgals4_1 CRD-mouse IgG2a-Fc fusion protein, sequence (Q8K419 other isoform, or with tags, fused parts or gaps limits assumed): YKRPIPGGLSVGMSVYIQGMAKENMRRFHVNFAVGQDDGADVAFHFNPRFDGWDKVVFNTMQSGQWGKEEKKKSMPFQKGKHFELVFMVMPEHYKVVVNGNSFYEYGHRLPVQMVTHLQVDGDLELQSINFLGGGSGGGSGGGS
Olr1 CRD-mouse IgG2a-Fc fusion protein, sequence (Q9EQ09 other isoform, or with tags, fused parts or gaps limits assumed): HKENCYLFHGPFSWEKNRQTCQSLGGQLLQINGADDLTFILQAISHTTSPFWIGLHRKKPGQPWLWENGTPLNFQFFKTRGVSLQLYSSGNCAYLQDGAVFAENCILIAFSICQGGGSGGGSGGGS
Lgals6_2 CRD-mouse IgG2a-Fc fusion protein, sequence (O54891 other isoform, or with tags, fused parts or gaps limits assumed): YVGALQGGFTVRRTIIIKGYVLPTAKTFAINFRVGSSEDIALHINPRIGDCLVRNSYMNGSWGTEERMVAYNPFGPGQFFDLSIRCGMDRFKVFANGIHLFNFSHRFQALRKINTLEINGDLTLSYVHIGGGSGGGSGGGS
Asgr1 CRD-mouse IgG2a-Fc fusion protein, sequence (P34927 other isoform, or with tags, fused parts or gaps limits assumed): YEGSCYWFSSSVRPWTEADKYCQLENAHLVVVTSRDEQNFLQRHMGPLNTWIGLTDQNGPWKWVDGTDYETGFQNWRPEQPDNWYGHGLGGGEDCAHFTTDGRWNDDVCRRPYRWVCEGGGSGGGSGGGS
Clec2g CRD-mouse IgG2a-Fc fusion protein, sequence (Q9D676 other isoform, or with tags, fused parts or gaps limits assumed): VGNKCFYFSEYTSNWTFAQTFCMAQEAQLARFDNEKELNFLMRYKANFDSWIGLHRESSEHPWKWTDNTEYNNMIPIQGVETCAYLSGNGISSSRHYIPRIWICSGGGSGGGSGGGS
Clec2h CRD-mouse IgG2a-Fc fusion protein, sequence (Q8C1T8 other isoform, or with tags, fused parts or gaps limits assumed): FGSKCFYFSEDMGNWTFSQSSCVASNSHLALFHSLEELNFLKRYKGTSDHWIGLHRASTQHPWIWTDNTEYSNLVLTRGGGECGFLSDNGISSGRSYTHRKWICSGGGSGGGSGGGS
Ly75_2 CRD-mouse IgG2a-Fc fusion protein, sequence (Q60767 other isoform, or with tags, fused parts or gaps limits assumed): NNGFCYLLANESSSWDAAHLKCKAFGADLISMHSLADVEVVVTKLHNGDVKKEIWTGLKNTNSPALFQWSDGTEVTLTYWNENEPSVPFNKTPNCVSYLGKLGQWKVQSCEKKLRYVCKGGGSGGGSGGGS
Bcan CRD-mouse IgG2a-Fc fusion protein, sequence (Q61361 other isoform, or with tags, fused parts or gaps limits assumed): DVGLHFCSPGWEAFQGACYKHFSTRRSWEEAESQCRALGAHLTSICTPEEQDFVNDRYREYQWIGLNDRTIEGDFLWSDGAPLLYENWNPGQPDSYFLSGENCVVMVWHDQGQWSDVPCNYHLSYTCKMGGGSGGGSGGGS
Ncan CRD-mouse IgG2a-Fc fusion protein, sequence (P55066 other isoform, or with tags, fused parts or gaps limits assumed): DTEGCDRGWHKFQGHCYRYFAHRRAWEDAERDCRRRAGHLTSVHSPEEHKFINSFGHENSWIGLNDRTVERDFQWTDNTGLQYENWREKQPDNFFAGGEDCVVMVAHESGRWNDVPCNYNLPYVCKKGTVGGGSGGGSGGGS
Clec2i CRD-mouse IgG2a-Fc fusion protein, sequence (Q9WVF9 other isoform, or with tags, fused parts or gaps limits assumed): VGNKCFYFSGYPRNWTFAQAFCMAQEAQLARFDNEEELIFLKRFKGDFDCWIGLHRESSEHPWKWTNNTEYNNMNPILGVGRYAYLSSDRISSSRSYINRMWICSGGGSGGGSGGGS
Clec4g CRD-mouse IgG2a-Fc fusion protein, sequence (Q8BNX1 other isoform, or with tags, fused parts or gaps limits assumed): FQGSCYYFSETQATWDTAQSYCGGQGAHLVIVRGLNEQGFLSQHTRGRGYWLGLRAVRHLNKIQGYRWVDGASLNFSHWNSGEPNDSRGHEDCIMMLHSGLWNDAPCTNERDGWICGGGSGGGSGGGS
Ly75_1 CRD-mouse IgG2a-Fc fusion protein, sequence (Q60767 other isoform, or with tags, fused parts or gaps limits assumed): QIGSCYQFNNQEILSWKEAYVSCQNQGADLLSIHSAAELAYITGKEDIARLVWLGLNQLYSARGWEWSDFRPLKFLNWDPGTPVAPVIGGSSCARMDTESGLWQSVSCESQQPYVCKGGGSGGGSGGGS
Ly75_5 CRD-mouse IgG2a-Fc fusion protein, sequence (Q60767 other isoform, or with tags, fused parts or gaps limits assumed): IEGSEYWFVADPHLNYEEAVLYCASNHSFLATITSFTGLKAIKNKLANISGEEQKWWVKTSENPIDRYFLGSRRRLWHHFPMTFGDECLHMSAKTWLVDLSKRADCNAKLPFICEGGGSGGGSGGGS

Substance	Mean normalized OD [1] [OD]	Mean normalized OD [2] [OD]	Mean normalized OD [3] [OD]	other results
Klrc2 CRD-mouse IgG2a-Fc fusion protein	0.025	0.035	0.104	–
Mgl2 CRD-mouse IgG2a-Fc fusion protein	0.598	1.31	0.145	–
Mag CRD-mouse IgG2a-Fc fusion protein (from UniProt P20917 22-120)	0.008	0.004	0.032	–
Prg3 CRD-mouse IgG2a-Fc fusion protein	-0.271	-0.057	-0.298	–
Clec2h CRD-mouse IgG2a-Fc fusion protein (from UniProt Q8C1T8 97-201)	–	0.237	–	–
Clec4a3 CRD-mouse IgG2a-Fc fusion protein	0.002	0.002	0.001	–
Mbl1 CRD-mouse IgG2a-Fc fusion protein (from UniProt P39039 144-239)	0.043	0.019	0.098	–
Clec2j CRD-mouse IgG2a-Fc fusion protein	0.006	0.005	0.059	–
Clec2i CRD-mouse IgG2a-Fc fusion protein (from UniProt Q9WVF9 99-203)	–	0.178	–	–
Clec4a4 CRD-mouse IgG2a-Fc fusion protein	0.004	0.007	-0.009	–
Prg2 CRD-mouse IgG2a-Fc fusion protein	0.009	0.001	-0.014	–
Klrc3 CRD-mouse IgG2a-Fc fusion protein	-0.007	0.061	0.086	–
Cd209f CRD-mouse IgG2a-Fc fusion protein	0.018	0.015	0.182	–
Lgals9_2 CRD-mouse IgG2a-Fc fusion protein (from UniProt O08573 225-353)	–	–	0.367	–
Clec4a CRD-mouse IgG2a-Fc fusion protein (from UniProt Q9QZ15 126-233)	0.014	0.036	0.062	–
Siglech CRD-mouse IgG2a-Fc fusion protein	0.003	0	-0.003	–
human CLEC4G-hIgG1 Fc-fusion protein (Fc fusion)	–	–	–	molecules bound per trimeric Spike (average) (molecules per trimeric Spike) [4]: 3.5; pKi [5]: 7.15 to 7.46; koff [6]: 0.007 s⁻¹; xβ (length of dissociation path) [6]: 0.64 nm; pKd [7]: 6.59; koff [7]: 0.0201 s⁻¹; kon [7]: 77700 M⁻¹ s⁻¹
Fcer2a CRD-mouse IgG2a-Fc fusion protein (from UniProt P20693 185-298)	0.007	0	-0.004	–
Ly75_1 CRD-mouse IgG2a-Fc fusion protein (from UniProt Q60767 225-341)	–	0.29	–	–
Clec2g CRD-mouse IgG2a-Fc fusion protein (from UniProt Q9D676 150-254)	–	0.421	–	–
Asgr1 CRD-mouse IgG2a-Fc fusion protein (from UniProt P34927 160-277)	–	0.697	–	–
Vcan CRD-mouse IgG2a-Fc fusion protein (from UniProt Q62059 3138-3252)	–	–	0.332	–
Colec12 CRD-mouse IgG2a-Fc fusion protein (from UniProt Q8K4Q8 614-731)	–	–	0.317	–

Substance	Mean normalized OD [1] [OD]	Mean normalized OD [2] [OD]	Mean normalized OD [3] [OD]	other results
Clec4b1 CRD-mouse IgG2a-Fc fusion protein	0.013	0.023	0.001	–
Clec4a1 CRD-mouse IgG2a-Fc fusion protein	0.014	0.024	-0.004	–
Clec4g CRD-mouse IgG2a-Fc fusion protein (from UniProt Q8BNX1 172-287)	–	0.451	–	–
Clec2f CRD-mouse IgG2a-Fc fusion protein	-0.02	0.045	-0.261	–
Cd33 CRD-mouse IgG2a-Fc fusion protein (from UniProt Q63994 17-120)	0.023	0.009	0.216	–
Siglec10 CRD-mouse IgG2a-Fc fusion protein (from UniProt Q80ZE3 26-138)	–	–	0.299	–
Ncan CRD-mouse IgG2a-Fc fusion protein (from UniProt P55066 1036-1165)	–	0.279	–	–
Bcan CRD-mouse IgG2a-Fc fusion protein (from UniProt Q61361 658-786)	–	0.101	–	–
Cd93 CRD-mouse IgG2a-Fc fusion protein (from UniProt O89103 31-173)	0	-0.005	-0.163	–
Lgals6_2 CRD-mouse IgG2a-Fc fusion protein (from UniProt O54891 173-301)	–	0.073	0.528	–
Clec4f CRD-mouse IgG2a-Fc fusion protein (from UniProt P70194 438-538)	-0.146	0.362	0.194	–
Ly75_2 CRD-mouse IgG2a-Fc fusion protein (from UniProt Q60767 368-486)	–	-0.206	–	–
Clec4b2 CRD-mouse IgG2a-Fc fusion protein	-0.013	0.003	0.008	–
Siglec5 CRD-mouse IgG2a-Fc fusion protein	0.041	0.019	0.146	–
human CD209-hIgG1 Fc-fusion protein (from UniProt Q9NNX6 62-404) (Fc fusion)	–	–	–	molecules bound per trimeric Spike (average) (molecules per trimeric Spike) [4]: 3.6; koff [6]: 0.008 s⁻¹; xβ (length of dissociation path) [6]: 0.73 nm; pKd [7]: 5.62; koff [7]: 0.0316 s⁻¹; kon [7]: 13200 M⁻¹ s⁻¹
Lgals4_1 CRD-mouse IgG2a-Fc fusion protein (from UniProt Q8K419 19-150)	–	0.143	–	–
Reg3d CRD-mouse IgG2a-Fc fusion protein	0.019	0.019	0.152	–
IgG2a	0.001	0	-0.003	–
Olr1 CRD-mouse IgG2a-Fc fusion protein (from UniProt Q9EQ09 242-355)	–	0.379	–	–
Ly75_5 CRD-mouse IgG2a-Fc fusion protein (from UniProt Q60767 818-932)	–	0.14	–	–
Klrb1b_1 CRD-mouse IgG2a-Fc fusion protein	0.001	0.002	0.003	–
Gm156 CRD-mouse IgG2a-Fc fusion protein	0.074	0.048	0.009	–
Klrc1 CRD-mouse IgG2a-Fc fusion protein	0.006	0.01	0.039	–

Reference: patent publication EP4039268A1
